Measured values taken from paper PMC7774954 (PLoS ONE, 2020).
Where no end group is shown, it is not given here. The star is where a group is joined. Biotin = O=C1N[C@H]2[C@H](CS[C@H]2CCCCC(=O)*)N1; TTDS = NCCCOCCOCCOCCCNC(=O)CCC(=O)*

T1: NHERF1-1 (human, UniProt O14745 14-94)
T1 construct: PDZ domain number 1 of human NHERF1; also called NHERF1 PDZ dom 1; first PDZ domain of the NHERF1 protein; source: E. coli, in crude cell lysate; not shown: His, N-terminal, kept
T1 sequence (looked up): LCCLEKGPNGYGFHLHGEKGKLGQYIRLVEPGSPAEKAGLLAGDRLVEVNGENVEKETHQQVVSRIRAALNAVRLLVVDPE

T2: PDZD7-3, third PDZ domain of PDZD7 (human, UniProt Q9H5P4 862-934)
T2 construct: PDZD7, human, PDZ domain 3; not shown: His6, N-terminal, kept; MBP, N-terminal, kept
T2 sequence (looked up): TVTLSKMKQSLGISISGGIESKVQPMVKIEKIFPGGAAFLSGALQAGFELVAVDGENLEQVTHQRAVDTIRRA

T3: PTPN13-2 (human, UniProt Q12923 1368-1452)
T3 construct: PDZ domain number 2 of human PTPN13; also called PTPN13 PDZ dom 2; source: E. coli, in crude cell lysate; not shown: His, N-terminal, kept
T3 sequence (looked up): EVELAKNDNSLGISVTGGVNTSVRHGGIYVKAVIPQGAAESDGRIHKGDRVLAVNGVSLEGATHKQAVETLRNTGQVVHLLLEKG

T4: PARD3B-1, first PDZ domain of PARD3B (human, UniProt Q8TEW8 201-289)
T4 construct: PARD3B, human, PDZ domain 1; not shown: His6, N-terminal, kept; MBP, N-terminal, kept
T4 sequence (looked up): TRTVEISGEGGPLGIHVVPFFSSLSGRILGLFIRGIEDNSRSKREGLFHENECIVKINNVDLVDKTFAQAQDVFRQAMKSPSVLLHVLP

B1: PTEN_11 (peptide, UniProt P60484 393-403, looked up)
peptide: {Biotin-TTDS}-DEDQHTQITKV
notes: also called 11-mer wild-type PTEN PBM peptide; native PTEN_11 PBM; source: synthetic peptide (Chemical Peptide Synthesis Service of the IGBMC, Fmoc)
B2: PTEN_Ac (peptide, UniProt P60484 393-403, looked up)
peptide: {Biotin-TTDS}-DEDQHTQITK(Ac)V
notes: also called acetylated version of PTEN_11; acetylated peptide; source: synthetic peptide (Chemical Peptide Synthesis Service of the IGBMC, Fmoc)
B3: PTEN_13, 13-mer wild-type PDZ-binding motif peptide of PTEN (peptide)
peptide: {Biotin-TTDS}-PFDEDQHTQITKV
notes: source: synthetic peptide, bought: JPT Innovative Peptide Solutions (70%-80% purity)
B4: PTEN_Ac, 11-mer PTEN PDZ-binding motif peptide acetylated at K402 (peptide)
peptide: {Biotin-TTDS}-DEDQHTQITK(Ac)V
notes: PTEN, human, canonical isoform I, residues 393-403, K402 acetylated (acK); source: synthetic peptide (Chemical Peptide Synthesis Service of the IGBMC)
B5: PTEN_KR (peptide, UniProt P60484 393-403, looked up)
peptide: {Biotin-TTDS}-DEDQHTQITRV
notes: also called K402R mutant; source: synthetic peptide (Chemical Peptide Synthesis Service of the IGBMC, Fmoc)
B6: PTEN_11, 11-mer wild-type PDZ-binding motif peptide of PTEN (peptide)
peptide: {Biotin-TTDS}-DEDQHTQITKV
notes: Labelled 'PTEN' in Supp; source: synthetic peptide (Chemical Peptide Synthesis Service of the IGBMC)
B7: PTEN_KR, 11-mer PTEN PDZ-binding motif peptide with K402R (peptide)
peptide: {Biotin-TTDS}-DEDQHTQITRV
notes: PTEN, human, canonical isoform I, residues 393-403 with K402R; source: synthetic peptide (Chemical Peptide Synthesis Service of the IGBMC)

Key:
MAGI2-2 = biological target: T5, MAGI2-2 (human, UniProt Q86UL8 426-510); test: holdup assay; biotinylated PBM peptide saturating streptavidin resin (biotin resin as reference); tag-PDZ at 4 uM in crude E. coli lysate, 15 min, filtration, free tag-PDZ by capillary electrophoresis; singlicate; BI cut-off 0.20; BI converted into KD with the peptide concentration back-calculated from FP; conditions: one partner purified
T5 construct: PDZ domain number 2 of human MAGI2; also called MAGI2 PDZ dom 2; source: E. coli, in crude cell lysate; not shown: His, N-terminal, kept
T5 sequence (Q86UL8 426-510): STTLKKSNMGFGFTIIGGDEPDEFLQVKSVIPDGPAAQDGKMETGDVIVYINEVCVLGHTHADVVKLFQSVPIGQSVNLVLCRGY

MAGI2-3 = biological target: T6, MAGI2-3 (human, UniProt Q86UL8 605-683); test: as above; conditions: one partner purified
T6 construct: PDZ domain number 3 of human MAGI2; also called MAGI2 PDZ dom 3; source: E. coli, in crude cell lysate; not shown: His, N-terminal, kept
T6 sequence (Q86UL8 605-683): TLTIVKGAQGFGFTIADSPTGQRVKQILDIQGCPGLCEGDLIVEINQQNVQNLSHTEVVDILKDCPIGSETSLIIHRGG

DLG4-1 = DLG4-1 (human, UniProt P78352 65-151); test: as above; conditions: one partner purified
DLG4-1, sequence (P78352 65-151, looked up): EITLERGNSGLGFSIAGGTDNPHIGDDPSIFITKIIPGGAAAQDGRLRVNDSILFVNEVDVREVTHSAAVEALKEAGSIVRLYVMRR

MAGI1-3 = biological target: T7, MAGI1-3 (human, UniProt Q96QZ7 643-721); test: as above; conditions: one partner purified
T7 construct: PDZ domain number 3 of human MAGI1; also called MAGI1 PDZ dom 3; source: E. coli, in crude cell lysate; not shown: His, N-terminal, kept
T7 sequence (Q96QZ7 643-721): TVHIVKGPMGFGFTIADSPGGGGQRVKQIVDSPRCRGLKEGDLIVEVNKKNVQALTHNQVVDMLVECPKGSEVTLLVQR

NHERF1-1 = biological target: T1, NHERF1-1; test: as above; conditions: one partner purified
[1] = biological target: T8, MAGI2-2, second PDZ domain of MAGI2 (human, UniProt Q86UL8 426-510); test: fluorescence polarisation; competitive: pre-formed complex of PDZ domain (>60-80% complex) and 50 nM fluorescent tracer peptide, increasing amount of unlabeled PTEN peptide (8 concentrations); 20 mM HEPES pH 7.5, 150 mM NaCl, 0.5 mM TCEP, 0.01% Tween 20; triplicate; competitive binding model (ProFit); apparent; conditions: both partners purified
T8 construct: not shown: His6, N-terminal, kept; MBP, N-terminal, kept
T8 sequence (Q86UL8 426-510): as the sequence (Q86UL8 426-510) above

[2] = biological target: T2, PDZD7-3, third PDZ domain of PDZD7; test: as above; conditions: both partners purified
[3] = biological target: T9, GRID2IP-2, second PDZ domain of GRID2IP (human, UniProt A4D2P6 279-356); test: as above; conditions: both partners purified
T9 construct: GRID2IP, human, PDZ domain 2; not shown: His6, N-terminal, kept; MBP, N-terminal, kept
T9 sequence (A4D2P6 279-356): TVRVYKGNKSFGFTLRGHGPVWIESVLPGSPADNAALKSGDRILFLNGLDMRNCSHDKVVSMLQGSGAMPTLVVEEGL

NHERF2-2 = biological target: T10, NHERF2-2 (human, UniProt Q15599 150-230); test: holdup assay; biotinylated PBM peptide saturating streptavidin resin (biotin resin as reference); tag-PDZ at 4 uM in crude E. coli lysate, 15 min, filtration, free tag-PDZ by capillary electrophoresis; singlicate; BI cut-off 0.20; BI converted into KD with the peptide concentration back-calculated from FP; conditions: one partner purified
T10 construct: PDZ domain number 2 of human NHERF2; also called NHERF2 PDZ dom 2; source: E. coli, in crude cell lysate; not shown: His, N-terminal, kept
T10 sequence (Q15599 150-230): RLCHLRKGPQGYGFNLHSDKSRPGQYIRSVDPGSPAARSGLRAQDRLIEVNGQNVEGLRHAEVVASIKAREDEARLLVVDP

DLG1-2 = biological target: T11, DLG1-2 (human, UniProt Q12959 319-405); test: as above; conditions: one partner purified
T11 construct: PDZ domain number 2 of human DLG1; also called DLG1 PDZ dom 2; source: E. coli, in crude cell lysate; not shown: His, N-terminal, kept

NHERF2-1 = biological target: T12, NHERF2-1 (human, UniProt Q15599 11-90); test: as above; conditions: one partner purified
T12 construct: PDZ domain number 1 of human NHERF2; also called NHERF2 PDZ dom 1; source: E. coli, in crude cell lysate; not shown: His, N-terminal, kept
T12 sequence (Q15599 11-90): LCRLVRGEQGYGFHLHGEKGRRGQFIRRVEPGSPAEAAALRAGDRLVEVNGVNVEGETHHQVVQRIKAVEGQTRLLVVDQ

PARD3-3 = biological target: T13, PARD3-3 (human, UniProt Q8TEW0 590-677); test: as above; conditions: one partner purified
T13 construct: the text says PARD3-1; also called PARD3 PDZ dom 3; source: E. coli, in crude cell lysate; not shown: His, N-terminal, kept
T13 sequence (Q8TEW0 590-677): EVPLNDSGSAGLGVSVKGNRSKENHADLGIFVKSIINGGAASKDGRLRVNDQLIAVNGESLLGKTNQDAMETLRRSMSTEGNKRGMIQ

PTPN13-2 = biological target: T3, PTPN13-2; test: as above; conditions: one partner purified
MAGI3-2 = biological target: T14, MAGI3-2 (human, UniProt Q5TCQ9 410-492); test: as above; conditions: one partner purified
T14 construct: PDZ domain number 2 of human MAGI3; also called MAGI3 PDZ dom 2; source: E. coli, in crude cell lysate; not shown: His, N-terminal, kept
T14 sequence (Q5TCQ9 410-492): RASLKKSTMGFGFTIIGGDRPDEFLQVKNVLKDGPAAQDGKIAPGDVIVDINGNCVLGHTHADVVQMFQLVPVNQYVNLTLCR

[4] = biological target: T9, GRID2IP-2, second PDZ domain of GRID2IP; test: fluorescence polarisation; direct: N-terminally fluorescein-labelled PBM peptide (tracer) with increasing amounts of MBP-PDZ; 384-well plates; triplicate; direct binding model (ProFit); conditions: both partners purified
[5] = biological target: T4, PARD3B-1, first PDZ domain of PARD3B; test: as above; conditions: both partners purified
[6] = biological target: T2, PDZD7-3, third PDZ domain of PDZD7; test: as above; conditions: both partners purified

Binder	Kd (MAGI2-2)	Kd (MAGI2-3)	Kd (DLG4-1)	Kd (MAGI1-3)	Kd (NHERF1-1)	Kd [2]	Kd [3]	further results
B1	152 µM	47 µM	293 µM	30 µM	33 µM			
B2	56 µM	15 µM	155 µM	10 µM	14 µM			
B3						5.76 µM		Kd [1]: 79.7 µM
B4						2.84 µM	36.7 µM	Kd [1]: 66.4 µM
B5	29 µM	21 µM	81 µM	15 µM	4 µM			Kd (NHERF2-2): 21 µM; Kd (DLG1-2): 71 µM; Kd (NHERF2-1): 120 µM; Kd (PARD3-3): 56 µM; Kd (PTPN13-2): 153 µM; Kd (MAGI3-2): 29 µM
fluorescein-KLPSTTL (source: synthetic peptide) [fRSK1, fluorescein-labelled RSK1 PBM peptide]								Kd [4]: 5.43 µM; Kd [5]: 33.7 µM; Kd [6]: 1.57 µM
B6						20.1 µM	87 µM	
B7						8.2 µM	51.6 µM	
